Measured values taken from paper PMC8973293.

B1: HuE71-IgG1 (antibody, V domains shown)
VH: QVQLVQPGDELVKPGASVKLSCKASGYTFTSYWMQWVKQRPGQGLEWIGEINPSNGRTNYNEMFKSKAVLSVDKSVSTAYMQLSSLTAEDTAVYYCALYDGYYAMDYWGQGTLVTVSS
VL: DIVMTQSPSSLAVSVGERVTMSCKSSQSLLYSSNQKNYLAWYQQKPGQSPKLLIYWASTRESGVPDRFSGSGSGTDFTLTISSVKAEDVALYYCQQYHSYPFTFGQGTKLEIK
B2: Desferrioxamine-HuE71-IgG1-Afuco (antibody, V domains shown)
VH: B1 VH
VL: B1 VL
B3: Desferrioxamine-HuE71-IgG1 (antibody, V domains shown)
VH: B1 VH
VL: B1 VL
B4: HuE71-IgG1-Afuco (antibody, V domains shown)
VH: B1 VH
VL: B1 VL

The binders below were run against human FcγRIIIa-158V (human) (assay: SPR; Biacore T200; analysis of Fc-Fc receptor binding; who was immobilised and the conditions are not given).

| Kd [nM] | Binder |
| --- | --- |
| 873 | B1 |
| 294 | B2 |
| 664 | B3 |
| 286 | B4 |

These binders were tested against murine FcγRIV (mouse) in the same assay as above.

| Kd [nM] | Binder |
| --- | --- |
| 724 | B1 |
| 219 | B2 |
| 539 | B3 |
| 227 | B4 |
